For the data set, the system named is T1, recombinant MBP-peptide fusion protein (MBP-29).
T1 sequence: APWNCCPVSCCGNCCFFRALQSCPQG

As to ProMMP-9 activated with MBP-MMP3, the “enzymatic activity of MMP-9 after MMP-3 dependent activation ([3H]-labeled gelatin substrate)” value is “MMP-3 dependent activation of MMP was inhibited in a dose-dependent manner”.
In the case of proMMP-9 (CALBIOCHEM), the “enzymatic activity of MMP-9 ([3H]-labeled gelatin substrate, TCA soluble radioactivity)” value is “inhibited MMP-9 activity in a dose-dependent manner”.

(Values after patent US20020159989.)
